Reference: patent publication US11857697B2, “Compositions and methods for obtaining 3-dimensional lung-like epithelium and related uses thereof” (THE REGENTS OF THE UNIVERSITY OF MICHIGAN, priority 2017, dated 2024)
“Also recorded” adds a separate entry of the source.

How the values were obtained:
[1] = tested on: 12 week human fetal distal epithelial lung buds; assay: Isolated human fetal lung bud culture in Matrigel: growth/expansion; assay type: cell-based; settings: FGF10 500 ng/mL
Text: All research utilizing human fetal tissue was approved by the University of Michigan institutional review board. Normal human fetal lungs were obtained from the University of Washington Laboratory of Developmental Biology, and epithelial lung buds were dissected as described below. All experiments were repeated using tissues from 3 individual lungs; 84 day post fertilization of unknown gender, 87 day post fertilization male, and 87 day post fertilization of unknown gender. All tissues were shipped in Belzer's solution at 4 degrees Celsius and were processed and in culture within 24 hours of isolation.
(§1) Isolated mouse buds were cultured in 4-6 μl droplets of matrigel, covered with media, and kept at 37 degrees Celsius with 5% Carbon Dioxide. Isolated human fetal lung buds were cultured in 25-50 μl droplets of matrigel, covered with media, and kept at 37 degrees Celsius with 5% Carbon Dioxide.
Distal regions of 12 week fetal lungs were cut into ˜2 mm sections and incubated with dispase, 100% FBS and then 10% FBS as described above, and moved to a sterile petri dish. Mesenchyme was removed by repeated pipetting of distal lung pieces after dispase treatment. Buds were washed with DMEM until mesenchymal cells were no longer visible in the media. Buds were then moved to a 1.5 mL eppendorf tube containing 200 uL of Matrigel, mixed using a p200 pipette, and plated in ˜20 uL droplets in a 24 well tissue culture plate. Plates were placed at 37 degrees Celsius with 5% CO2 for 20 minutes while droplets solidified. 500 uL of media was added to each well containing a droplet. Media was changed every 2-3 days.
All mouse bud, human fetal bud, and hPSC-derived human lung organoids were grown in low-serum basal media (basal media) with added growth factors. […]

[2] = tested on: E13.5 mouse distal epithelial lung buds; assay: Isolated E13.5 mouse distal lung bud culture in Matrigel droplet: growth/expansion; assay type: cell-based; settings: FGF10 500 ng/mL (50-fold excess), up to 5 days
Description: as §1
Mouse buds were dissected from E13.5 embryos. For experiments using Sox9CreER; Rosa^Tomato/Tomato mice, 50 ug/g of tamoxifen was dissolved in corn oil and given by oral gavage on E12.5, 24 hours prior to dissection. Briefly, in sterile environment, whole lungs were placed in 100% dispase (Corning Cat#354235) on ice for 30 minutes. Lungs were then transferred using a 25 uL wiretrol tool (Drummond Scientific Cat#S5-000-2050) to 100% FBS (Corning Cat#35-010-CV) on ice for 15 minutes, and then transferred to a solution of Dulbecco's Modified Eagle Medium: Nutrient Mixture F12 (DMEM/F12, ThermoFisher SKU#12634-010) with 10% FBS and 1× Pennicillin-Streptomycin (ThermoFisher Cat#15140122) on ice. To dissect buds, a single lung or lung lobe was transferred by wiretrol within a droplet of media to a 100 mm sterile petri dish. Under a dissecting microscope, the mesenchyme was carefully removed and epithelial bud tips were torn away from the bronchial tree using tungsten needles (Point Technologies, Inc.). Care was taken to remove the trachea and any connective tissue from dissected lungs. Isolated bud tips were picked up using a p20 pipette and added to an eppendorf tube with cold Matrigel (Corning Ref#354248) on ice. The buds were picked up in a p20 pipette with 4-6 uL of Matrigel and plated on a 24-well tissue culture well (ThermoFisher Cat#142475). The plate was moved to a tissue culture incubator and incubated for 5 minutes at 37 degrees Celsius and 5% CO2 to allow the Matrigel droplet to solidify. 500 uL of media was then added to the dish in a laminar flow hood. Media was changed every 2-3 days.
All mouse bud, human fetal bud, and hPSC-derived human lung organoids were grown in low-serum basal media (basal media) with added growth factors. Basal media consisted of Dulbecco's Modified Eagle Medium: Nutrient Mixture F12 (DMEM/F12, ThermoFisher SKU#12634-010) supplemented with 1× N2 supplement (ThermoFisher Catalog#17502048) and […] B27 supplement (ThermoFisher Catalog#17504044), along with 2 mM Glutamax (ThermoFisher Catalog#35050061), 1× Pennicillin-Streptomycin (ThermoFisher Cat#15140122) and 0.05% Bovine Serum Albumin (BSA; Sigma product# A9647). BSA was weighed and dissolved in DMEM F/12 media before being passed through a SteriFlip 0.22 uM filter (Millipore Item# EW-29969-24) and being added to basal media. Media was stored at 4 degrees Celsius for up to 1 month. On the day of use, basal media was aliquoted and 50 ug/mL Ascorbic acid and 0.4 uM Monothioglycerol was added. […]

Molecule	Tissue expansion / cyst formation of bud tips ([1]; Y27632 10 uM)	Bud growth [2]	Growth of human fetal lung buds ([1]; compared to basal media)
C[C@@H](N)[C@H]1CC[C@H](C(=O)Nc2ccncc2)CC1 [Y27632, reference compound]	in combination with FGF10, but not alone, promoted growth of buds into larger cyst-like structures; also recorded: did not lead to tissue expansion		
Recombinant Human Fibroblast Growth Factor 10 (protein, UniProt O15520 38-208, looked up) Fibroblast growth factor 10: QALGQDMVSPEATNSSSSSFSSPSSAGRHVRSYNHLQGDVRWRKLFSFTKYFLKIEKNGKVSGTKKENCPYSILEITSVEIGVVAVKAINSNYYLAMNKKGKLYGSKEFNNDCKLKERIEENGYNTYASFNWQHNGRQMYVALNGKGAPRRGQKTRRKNTSAHFLPMVVHS		modest growth of buds	only modest growth; also recorded: expansion of the tissue was not robust
